This passage reports binding result and IC50 results from patent US20140235701, “NGF APTAMER AND APPLICATION THEREOF” (RIBOMIC INC., published 2014).

The chains are these.
B1: SEQ ID NO: 53 (ssRNA)
RNA: GGGAGAACUUCGACCAGAAGUUUGCACAUCCUGCUGCGCAGUUUCCGUCUACGUGGCUGUUAUGUGCGCAUACAUGGAUCCUC
modifications: 2'-F C/U, dA, 2'-OH G
B2: SEQ ID NO: 54 (ssRNA)
RNA: GGGAGAACUUCGACCAGAAGUUGGCACAUCCUGAUGCGUAGUUUCCGUCUGCGUGUCUGUUAUGUGCGCAUACAUGGAUCCUC
modifications: 2'-F C/U, dA, 2'-OH G
B3: SEQ ID NO: 50 (ssRNA)
RNA: GGGAGAACUUCGACCAGAAGCUGGCACAUCCUGUUGCGUAGUUUCCGUCUACGUGACUGUUAUGUGCGCAUACAUGGAUCCUC
modifications: 2'-F C/U, dA, 2'-OH G
B4: SEQ ID NO: 57 (ssRNA)
RNA: GGGAGAACUUCGACCAGAAGUAGGCACGUCCUGCUGCAUAGUUUCCGUCUGUGUGGCUGUUAUGUGCGCAUACAUGGAUCCUC
modifications: 2'-F C/U, dA, 2'-OH G
B5: SEQ ID NO: 55 (ssRNA)
RNA: GGGAGAACUUCGACCAGAAGUUGGCACAUCCUGUUGCGUAGUUUCCGUCUGCGUGGCUGUUAUGUGCGCAUACAUGGAUCCUC
modifications: 2'-F C/U, dA, 2'-OH G
B6: SEQ ID NO: 51 (ssRNA)
RNA: GGGAGAACUUCGACCAGAAGUUGGCACACCCUGCUACGGAGUUUCCGUCUCGGUGGCUGUUAUGUGCGCAUACAUGGAUCCUC
modifications: 2'-F C/U, dA, 2'-OH G
B7: SEQ ID NO: 59 (ssRNA)
RNA: GGGAGAACUUCGACCAGAAGUUUGCACAUCCUGCUGCGUAGUUUCCUUCUGCGUGGUUGUUAUGUGCGCAUACAUGGAUCCUC
modifications: 2'-F C/U, dA, 2'-OH G
B8: SEQ ID NO: 49 (ssRNA)
RNA: GGGAGAACUUCGACCAGAAGUUUGCACAUCCUGCUGCGUAGUUUCCGUCUACGUGGCUGUUAUGUGCGCAUACAUGGAUCCUC
modifications: 2'-F C/U, dA, 2'-OH G
B9: SEQ ID NO: 58 (ssRNA)
RNA: GGGAGAACUUCGACCAGAAGUUGACACAUCCUGCUGCGUAGUUUCCGUCUGCGUGGUUGUUAUGUGCGCAUACAUGGAUCCUC
modifications: 2'-F C/U, dA, 2'-OH G
B10: SEQ ID NO: 52 (ssRNA)
RNA: GGGAGAACUUCGACCAGAAGUUGGCACAUCCUGCUGCAUAGUUUCCGUCUUUGUGGCUGUUAUGUGCGCAUACAUGGAUCCUC
modifications: 2'-F C/U, dA, 2'-OH G
B11: SEQ ID NO: 48 (ssRNA)
RNA: GGGAGAACUUCGACCAGAAGUUGGCACAUCCUGCUGCGGAGUUUCCGUCUCGGUGGCUGUUAUGUGCGCAUACAUGGAUCCUC
modifications: 2'-F C/U, dA, 2'-OH G
B12: SEQ ID NO: 56 (ssRNA)
RNA: GGGAGAACUUCGACCAGAAGUUGCACAUCCUGCUGUGUAGUUUCCGUCUGCAUGGUUGUUAUGUGCGCAUACAUGGAUCCUC
modifications: 2'-F C/U, dA, 2'-OH G
B13: SEQ ID NO: 22 (ssRNA)
RNA: GGGAGAACUUCGACCAGAAGUUGGCACAUCCUGCUGCGUAGUUUCCGUCUUCGUGGCUGUUAUGUGCGCAUACAUGGAUCCUC
modifications: 2'-F C/U, dA, 2'-OH G
B14: SEQ ID NO: 34 (ssRNA)
RNA: GGGAGAACUUCGACCAGAAGUUGGCACAUCCUGCCGCGUAGUUUCCGUCUGCGUGGCUGUUAUGUGCGCAUACAUGGAUCCUC
modifications: 2'-F C/U, dA, 2'-OH G
B15: SEQ ID NO: 28 (ssRNA)
RNA: GGGAGAACUUCGACCAGAAGUUGGCACAUCCUGCUGCGUAGUUUCCAUCUGCGUGGCUGUUAUGUGCGCAUACAUGGAUCCUC
modifications: 2'-F C/U, dA, 2'-OH G
B16: SEQ ID NO: 25 (ssRNA)
RNA: GGGAGAACUUCGACCAGAAGUUGGCACAUCCUGCUGCGCAGUUUCCGUCUACGUGGCUGUUAUGUGCGCAUACAUGGAUCCUC
modifications: 2'-F C/U, dA, 2'-OH G
B17: SEQ ID NO: 31 (ssRNA)
RNA: GGGAGAACUUCGACCAGAAGUUGGCACAUCCUGCUGCGCAGUUUCCCUCUGCGUGGCUGUUAUGUGCGCAUACAUGGAUCCUC
modifications: 2'-F C/U, dA, 2'-OH G
B18: SEQ ID NO: 24 (ssRNA)
RNA: GGGAGAACUUCGACCAGAAGUUGGCACAUCCUGCUGCGAAGUUUCCGUCUCCGUGGCUGUUAUGUGCGCAUACAUGGAUCCUC
modifications: 2'-F C/U, dA, 2'-OH G
B19: SEQ ID NO: 37 (ssRNA)
RNA: GGGAGAACUUCGACCAGAAGUUGGCACAUCCUGCUACGUAGUUUCCUUCUUCGUGGCUGUUAUGUGCGCAUACAUGGAUCCUC
modifications: 2'-F C/U, dA, 2'-OH G
B20: SEQ ID NO: 32 (ssRNA)
RNA: GGGAGAACUUCGACCAGAAGUUGGCACAUCCUGCUGCGGAGUUUCCUUCUUCGUGGCUGUUAUGUGCGCAUACAUGGAUCCUC
modifications: 2'-F C/U, dA, 2'-OH G
B21: SEQ ID NO: 27 (ssRNA)
RNA: GGGAGAACUUCGACCAGAAGUUGGCACAUCCUGCUGCGCAGUUUCCGUCUGCGUGGCUGUUAUGUGCGCAUACAUGGAUCCUC
modifications: 2'-F C/U, dA, 2'-OH G
B22: SEQ ID NO: 33 (ssRNA)
RNA: GGGAGAACUUCGACCAGAAGUUGGCACAUCCUGCCGCGUAGUUUCAAUCUUGGUGGCGUGUAUGUGCGCAUACAUGGAUCCUC
modifications: 2'-F C/U, dA, 2'-OH G
B23: SEQ ID NO: 35 (ssRNA)
RNA: GGGAGAACUUCGACCAGAAGUUGGCACAUCCUGUUGCGUAGUUUCCUUCUACGUGGCUGUUAUGUGCGCAUACAUGGAUCCUC
modifications: 2'-F C/U, dA, 2'-OH G
B24: SEQ ID NO: 36 (ssRNA)
RNA: GGGAGAACUUCGACCAGAAGGUACGUUAGUACGUUUGCAUAUGUACAACCUUGCAUACGAUACGUAGGUUAUGUGCGCAUACAUGGAUCCUC
modifications: 2'-F C/U, dA, 2'-OH G
B25: SEQ ID NO: 29 (ssRNA)
RNA: GGGAGAACUUCGACCAGAAGUUCACAUCCUGCUGCGAAGUUUCCUUCUUCGUGGCUGUUAUGUGCGCAUACAUGGAUCCUC
modifications: 2'-F C/U, dA, 2'-OH G
B26: SEQ ID NO: 30 (ssRNA)
RNA: GGGAGAACUUCGACCAGAAGUUGGCACAUCCUGCUGCGAAGGUUCCGUCUUCGUGGCUGUACUAUGUGCGCAUACAUGGAUCCUC
modifications: 2'-F C/U, dA, 2'-OH G
B27: SEQ ID NO: 23 (ssRNA)
RNA: GGGAGAACUUCGACCAGAAGUGGCACAUCCUGCUGCGUAGUUUCCGUCUGCGUGGCUGUUAUGUGCGCAUACAUGGAUCCUC
modifications: 2'-F C/U, dA, 2'-OH G
B28: SEQ ID NO: 26 (ssRNA)
RNA: GGGAGAACUUCGACCAGAAGUGGCACAUCCUGCUGCGUAGUUUCCGUCUUCGCGGCUGUUAUGUGCGCAUACAUGGAUCCUC
modifications: 2'-F C/U, dA, 2'-OH G

The first data set deals with T1, NGF (nerve growth factor) (Homo sapiens, UniProt P01138 P01138:122-241). The data set is described as follows: SPR; more than 40N control. Conditions: tags: R&D Systems; chain copies: 2. In general terms: Surface plasmon resonance follows binding to a sensor surface in real time, without labels.
T1 sequence (P01138 122-241, one chain of several): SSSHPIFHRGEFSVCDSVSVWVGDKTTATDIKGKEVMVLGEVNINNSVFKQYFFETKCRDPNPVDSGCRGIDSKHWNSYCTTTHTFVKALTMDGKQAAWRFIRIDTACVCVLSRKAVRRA
Turning to B1, the binding result is “binds”.

Regarding B2, the binding result is “binds”.

Turning to B3, the binding result is listed as “binds”.

Regarding B4, the binding result is “binds”.

B5: the binding result is “binds”.

In the case of B6, the binding result is “binds”.

Turning to B7, the binding result is “binds”.

As for B8, the binding result is “binds”.

For B9, the binding result is “binds”.

In the case of B10, the binding result is listed as “binds”.

Take B11: the binding result was “binds”.

Regarding B12, the binding result was “binds”.

Another data set deals with T2, NT-4 (neurotrophin-4) (Homo sapiens, UniProt P34130 P34130:81-210).
T2 sequence: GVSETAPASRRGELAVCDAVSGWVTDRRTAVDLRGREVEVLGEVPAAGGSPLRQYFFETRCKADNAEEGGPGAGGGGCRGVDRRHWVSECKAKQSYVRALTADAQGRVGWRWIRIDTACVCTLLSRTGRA
The data set is described as follows: cell_activity; TF-1. Conditions: tags: R&D Systems; chain copies: 2. An excerpt:
Using TF-1 cells, whether NGF aptamer inhibits BDNF, NT-3, NT-4 was examined. Human receptor genes (TrkB, TrkC, p75) for respective neurotrophic factors were introduced into TF-1 cells (ATCC Number: CRL-2003), which is a human erythroleukemic cell line, by using a retrovirus vector to give cells that highly express these receptors stably. TF-1 cells introduced with TrkB and p75 were used for the evaluation of inhibitory activity against BDNF, TF-1 cells introduced with TrkC and p75 were used for the evaluation against NT-3, and TF-1 cells introduced with TrkB alone were used for the evaluation against NT-4. These cells were suspended in an RPMI-1640 medium containing 20% fetal bovine serum, and seeded in a white 96 well flat-bottom plate at 1000 cells (50 μL) per well. Thereto was added a mixed solution 50 μL of human BDNF (final concentration 0.074 nM) or NT-3 (final concentration 0.074 nM) or NT-4 (final concentration 0.071 nM) and the aptamer (final concentration 1 μM-0.01 nM), which had been pre-reacted at room temperature for 30 min in a serum-free RPMI-1640 medium, 3 days later, 100 μL of CellTiter-Glo reagent for CellTiter-Glo Luminescent Cell Viability Assay (manufactured by Promega) was added to each well, chemiluminescence was measured by a microplate reader. With the amount of luminescence per well obtained by the addition of BDNF or NT-3 or NT-4 alone and culture of the cells for 3 days as inhibitory activity 0%, and that of the well obtained by culture for 3 days without addition of BDNF or NT-3 or NT-4 as inhibitory activity 100%, the inhibitory activity of the aptamer was calculated from the amount of luminescence per well obtained by culturing with the addition of BDNF or NT-3 or NT-4 and the aptamer in mixture. When the inhibitory activity was 0 or below, ‘0%’ is indicated. The 50% inhibitory concentration (IC₅₀) was determined from the concentrations at two, above and below points sandwiching the 50% inhibitory activity. An IC₅₀ value indicated as “>X” means that the inhibitory activity was not more than 50% when the indicated concentration X was the maximum measured concentration. N.D. means not measured.
As usually defined, the IC50 is the concentration that inhibits the measured activity by half. Molecule GGGUCCUGGAUAAGAGUUUCCGUCUCGUAUCCUGUUACCC (ssRNA, as 82(25) except 5' PEG80TS4 instead of idT) [SEQ ID NO: 82(55)] yielded an IC50 of 14.3 nM.

In the case of GGGUCCUGGAUAAGAGUUUCCGUCUCGUAUCCUGUUACCC (ssRNA, 2'-OMe G (G8,G34 2'-OH), dA, 2'-F C/U; 5',3' idT) [SEQ ID NO: 82(1)], the IC50 is < 100 nM.

Another data set addresses T1, NGF (nerve growth factor). The data set is described as follows: SPR; more than 40N control. Conditions: tags: R&D Systems; chain copies: 2. This is another data set of the same source. The protocol:
As the measuring apparatus, BIAcore2000 manufactured by BIAcore was used and, as the sensor chip, CM5 that reacts with an amino group was used. […] For the reaction of an amino group on the protein side and a carboxyl group on the chip side, ethyl-3-carbodiimide hydrochloride and N-hydroxysuccinimide were used. After the reaction, blocking by ethanolamine-HCl was performed. The immobilized amount of NGF was set to 3,000-4,000 RU. An aptamer for analyte was prepared to 0.15 μM-0.5 μM. As a running buffer, solution A was used. Here, solution A is a mixed solution of 145 mM sodium chloride, 5.4 mM potassium chloride, 1.8 mM calcium chloride, 0.8 mM magnesium chloride, 20 mM Tris (pH 7.6), 0.05% Tween 20. As a regeneration solution, a mixed solution of 1M NaCl and 50 mM NaOH was used. NGF was immobilized on FC2, and the results of FC1 were subtracted to give a final sensorgram.
The measurement was as shown in Examples 1 and 2 and the surface plasmon resonance method was used.
As for B13, the binding result is “binds”.

For the molecule B14, the binding result is recorded as “binds”.

Consider B15, for which the binding result is reported as “binds”.

In the case of B16, the binding result was “binds”.

Consider B17, for which the binding result was “binds”.

With B18, the binding result was “binds”.

Turning to B19, the binding result is recorded as “binds”.

For the molecule B20, the binding result is reported as “binds”.

Take B21: the binding result is “binds”.

Consider B22, for which the binding result is listed as “binds”.

Take B23: the binding result is listed as “binds”.

For B24, the binding result is given as “binds”.

Take B25: the binding result is reported as “binds”.

Turning to B26, the binding result is recorded as “binds”.

For B27, the binding result is listed as “binds”.

Take B28: the binding result is recorded as “binds”.
